1 substance from patent US20020173477A1 can be followed below.

The target in this assay is human Cε-containing IgE in serum of Hu-IgE transgenic mice (human Cε region and the H chain V region of the murine Mab BAT123) (human) (UniProt P01854). Nature of the assay: cell-based or functional assay.

For the substance “Hu-901 (mCγ2a,κ), intact anti-IgE antibody with humanized variable regions and murine constant regions (from UniProt P01863 1-330)”, the IgE suppression in Hu-IgE transgenic mice infected with Ad-Hu-901 (mCγ2a,κ), day 4 post infection (free IgE ELISA) fell in the range of 40 to 90%.
